From article doi:10.1101/712158 come the findings set out here.

Assay [1] addresses L19-hIL2 (human). The assay can be described thus: SEC.
Assay [2] concerns the target L19-mTNF (murine). The assay can be described thus: SEC.

In turn, L19-hIL2 yielded a stoichiometry N in assay [1] of 2.

L19-mTNF showed a stoichiometry N in assay [2] of 3.
